From the RNAGym collection of RNA variant scans (doi:10.1073/pnas.2313332121)

B1: TPR t1 (parent)
chain: GACCAAUCUGCCCUCAGAGCUCGAGAACAUCUUCGGAUGCAGAGGAGGCAGGCUUCGGUGGCGCGAUAGCGCCAACGUCCUCAACCUCCAAUGCAUCCCACCACAUGAUGAUGCCUGAAGAGCCUUGGUUUUUUG

Variants of: B1
Test: polymerase ribozyme fitness, log enrichment relative to wild type (log ratio); higher = more active; in vitro selection for triplet polymerase activity
How it was run: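 Fitness compares each genotype's enrichment to that of the wild type on a logarithmic scale, averaging replicates with inverse-variance weights. The logarithm is base 2. Enrichment came from Illumina sequencing of input and output libraries after one triplicate round of in vitro selection, which included frozen incubation at −7 °C, of PCR-built, transcribed mutant libraries of each subunit of a heterodimeric triplet polymerase ribozyme. Only genotypes with ≥10 input reads and ≥1 read per output were kept.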
For GGCCAAUCUGCCCUCAGAGCUCGAGAACAUCUUCGAAUGCAGAGGAGGGAGGCUUCGGUGGCGCGAUAGCGCCAACGUCCUCACCCUCCAAUGCAUCCCACCACAUGAUGAUGCCUGAAGAGACUGGGUUUUUUG, the “polymerase ribozyme fitness (log ratio)” value was -2.7. For GGCCAAUCUGCCCUCAGAGCUCGAGAACAUCUUCGAAUGCAGAGGAGGGAGGCUUCGGUGGCGCGAUAUCGCCAACGUCCUCAACCUCCGAUGCAUUCCACCACAUGAUGAUGCCUGAACAGCCUUGGUUUUUUG, the “polymerase ribozyme fitness (log ratio)” value was 0.751. In the case of GGCCAAUCUGCCCUCAGAGCUCGAGAACAUCUUCGGAUGCAGAGGAGGCAGACUUCGGUGGCGCGAUAGCGCCAACGUCCUCAAUCUCCAAUGCAUCCCACCACAUGAUGAUGCCUGAAGAGCCUUGGUUUUUUG, the “polymerase ribozyme fitness (log ratio)” value is reported as -1.87. In the case of GGCCAAUCUGCCCUCAGAGCUCGAGAACAUCUUCGGAUGCAGAGGAGGCAGGCUUCGGUGGCGCGAUAGCGCCAACGUCCUCAACCUCCAAUGCAUCCCACCACAUGAUGAUGCCUGAAGAGCCUUGGUUUUUUU, the “polymerase ribozyme fitness (log ratio)” value is reported as -0.44. For GGCCAAUCUGCCCUCAGAGCUCGAGAACAUCUUCGGAUGCAGAGGAGGCAGGCUUCAGUGACGCGAUAGCGCCAACGUCCUCAACCUCCAAUGCAUCCCACCACAUGAUGAUGCCUUAAGAGCCUUGGUUUUUUG, the “polymerase ribozyme fitness (log ratio)” value was -3.55. With GGCCAACCUUCCCUCAGAGCUCGAGAACAUCUUCGGAUGCAGAGGAGGCAGCCUUCGGUGGCGCGAUAGCGCCAACGUCCUCAACCUCCAAUGCAUCCCACCACAUGAUGAUGCCUGAAGAGCCUUGGUUUUUUG the “polymerase ribozyme fitness (log ratio)” value was -1.99. For GGCCAAUCUGCCCUCAGAGCUCGAGAACAUCUUCGGAUGCAGAGGAGGCAGGCUUCGGUGGCGCGAUAGCACCAACGUCCUCAACCUCCAAUGCAUCCCACCACAUGAUGAUGCCUGAAGAGCCUUGGUUUUUUG, the “polymerase ribozyme fitness (log ratio)” value was -0.784. In the case of GGCCAAUCUGCCCUCAGAGCUCGAGAACAUCUUCGGAUGCAGAGGAGGCAGGCUUCGGUGGCGCGAUAGCGCCAACGUCCUCAACCUCCAAUGCAUCCCACCACAUGAUGAUGCCUAAAGAGCCUUGGUUUUUUG, the “polymerase ribozyme fitness (log ratio)” value is reported as -1.6. In the case of GGCCAAUCUGCCCUCAGAGCUCGAGAACAUCUUCGGAUGCAGAAGAGGCAGGCUUCGGUGGCGCGAUAGCGCCAACGUCCUCAACCUCCAAUGCAUCCCACCACAUGAUGAUGCCUGAAGAGCCUUGGUUUUUUG, the “polymerase ribozyme fitness (log ratio)” value is reported as -0.766. For GGCCAAUCUGCCCUCAGAGCUCGAGAACAUCUUCGGAUGCAGAGAAGGCAGGCUUCGGUGGCUCGAUAGCGCCAACGUCCUCAACCUCCAAUGCAUCCCACCACAUGAUGAAGCCUGAAGAGCCUUGGUUUUUUG, the “polymerase ribozyme fitness (log ratio)” value was -0.348. With GGCCAAUCUGCCCUCAGAGCUCGAGAACAUCUUCGGAUGCAGAGGAGGCAGGCUUCGGUGGCGCGAUAGCGCCAACUUCCUGAACCUCCAAUGCAUCCCACCACAUGAUGAUGCCUGAAGAGCCUUGGUUUUUUG the “polymerase ribozyme fitness (log ratio)” value was -0.807. For GGCCAAUCUGCCCUCAGAGCUCGAGAACAUCUUCGGAUGCAGAGGAAGCAGGCUUCGGUGGCGCGAUAGCGGCAACGUCCUCAACCUCCAAUGCAUCCCACCACAUGAUGAUGCCUGAAGAGCCUUGGUUUUUUG, the “polymerase ribozyme fitness (log ratio)” value was -0.743. For GGCCAAUCUGCCCUCAGAGCUCGAGAACAUCUUCGGAUGCAGAGUAGGCAGGCUUCGGUGGCGCGAUAGCGCCAACGUCCUCAACCUCCAAUGCAUCCCACCACAUGAUGAUGCCUGAAGAGCCUUGGUUUUUUG, the “polymerase ribozyme fitness (log ratio)” value was -1.83. For GGCCAAUCUGCCCUCAGAGCUCGAGAACAUCUUCGGAUGCAGAGGAGGCAGGCUUCGGUGACGCGAUAGCGCCAACGUCCUCAACCUCCAAUGCAUCCCACUACAUGAAGAUGCCUGAAGAGCCUUGGUUUUUUG, the “polymerase ribozyme fitness (log ratio)” value was -5.41. With GGCCAAUCUGCCCUCAGAGCUCGAGAACAUCUUCGGAUGCAGAGGAGGCAGGCUUCGGUGGCGCGAUAACGCCAACGUCCUCAACCUCCAAUGCAUCCCACCACAUGAUGAUGCCUGAAGAGCCUUGGUUUUUUG the “polymerase ribozyme fitness (log ratio)” value was -2.65. With GGCCAAUCUGCCCUCAGAGCUCGAGAACAUCUUCGGAUGCAGAGGAGGCAGGCUUCGGUGGCCCGAUAGCGCCCACGUCCUCAACCCCCAAUGCAUCCCUCCACAUGAUGAUGCCUGAAGAGCCUUGGUUUUUUG the “polymerase ribozyme fitness (log ratio)” value was -4.51. For GGCCAAUCUGCCCUCAGAGCUCGAGAACAUCUUCGGAUGCAGAGGAGGCAGGCUUCGGUGCCGCGAUAGCGCCAACGUCCUCAACCUUCAAUGCAUCCCACCACAUGAUGAUGCCUGAAGAGCAUUGGUUUUUUG, the “polymerase ribozyme fitness (log ratio)” value was -0.51. For GGCCAAUCUGCCCUCAGAGCUCGAGAACAUCUUCGGAUGCAGAGGAGGCAGGCUUCGGUGGCGCGAUAGCGCCAACGUCCUCAACCUCCAAUACAUCCCACCACAUGAUGAUGCCUGAAUAGCCUUGGUUUUUUG, the “polymerase ribozyme fitness (log ratio)” value was -0.278. In the case of GGCCAAUCUGCCCUCAGAGCUCGAGAACAUCUUCGGAUGCAGAGGAGGCAGGCUUCGGUGGCGCGAUAGCGCCAACGUCCUCAACCUCCAAUGCAUCCCACCACAUGAUGAUGCCUGAACAGCCUUGGUUUUUUG, the “polymerase ribozyme fitness (log ratio)” value is reported as 1.19. With GGCCAAUCUGCCCUCAGAGCUCGAGAACAUCUUCUGAUGCAGAGGAGGCAGGCUUCGGUGGCGCGAUAGCGCCAACGUCCUCAACCUCCAAUGCAUCCCACCACAUGAUGAUGCCUGAAGAGCAUUGGUUUUUUG the “polymerase ribozyme fitness (log ratio)” value was -4.09. With GGCCAAUCUGCCCUCAGAGCUCGAGAACAUCUUCGGAUGCAGAGGAGGCAGGCUUCGGUGGCGCGAUAGCGCCAACGUCCUCAACCUCCAAUGCAUCCCACCACAUGAUGAUGCCUGAAAAGCCUUGGCUUUUUU the “polymerase ribozyme fitness (log ratio)” value was -1.81.
